Assay results: paper PMC2141769

Assays:
[1] = biological target: EC0, mutant E-cadherin protein that completely lacks the cytoplasmic domain; experiment: cross-linking
[2] = biological target: EΔC37, mutant E-cadherin polypeptide with COOH-terminal deletion of 37 amino acid residues; experiment: co-IP
[3] = biological target: EΔC71, mutant E-cadherin polypeptide with COOH-terminal deletion of 71 amino acid residues; experiment: co-IP

EC0, mutant E-cadherin protein that completely lacks the cytoplasmic domain, sequence (P09803 152-704, stated change not applied): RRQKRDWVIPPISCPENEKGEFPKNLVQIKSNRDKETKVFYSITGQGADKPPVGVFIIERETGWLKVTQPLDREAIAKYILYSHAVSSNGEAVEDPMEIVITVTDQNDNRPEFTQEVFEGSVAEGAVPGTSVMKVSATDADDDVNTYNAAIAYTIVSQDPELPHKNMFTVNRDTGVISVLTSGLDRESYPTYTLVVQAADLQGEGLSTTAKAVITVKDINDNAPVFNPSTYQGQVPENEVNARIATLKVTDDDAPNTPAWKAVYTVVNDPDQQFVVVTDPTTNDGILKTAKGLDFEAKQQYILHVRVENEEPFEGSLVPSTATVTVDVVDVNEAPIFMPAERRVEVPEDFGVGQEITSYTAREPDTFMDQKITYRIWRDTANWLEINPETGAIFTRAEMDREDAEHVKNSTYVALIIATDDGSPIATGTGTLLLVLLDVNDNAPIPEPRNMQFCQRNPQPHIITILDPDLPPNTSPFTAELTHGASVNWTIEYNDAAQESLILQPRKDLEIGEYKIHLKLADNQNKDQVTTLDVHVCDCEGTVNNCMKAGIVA

| stoichiometry N [1] | amount of p120 coprecipitated, percent of EK cells [2] [%] | amount of p120 coprecipitated, percent of EK cells [3] [%] | Molecule |
| --- | --- | --- | --- |
| 2 | – | – | EC0, mutant E-cadherin protein that completely lacks the cytoplasmic domain (domain or fragment) |
| – | 10 | 10 | p120 (natural protein) MDDSEVESTASILASVKEQEAQFEKLTRALEEERRHVSAQLERVRVSPQDANPLMANGTLTRRHQNGRFVGDADLERQKFSDLKLNGPQDHSHLLYSTIPRMQEPGQIVETYTEEDPEGAMSVVSVETSDDGTTRRTETTVKKVVKTVTTRTVQPVAMGPDGLPVDASSVSNNYIQTLGRDFRKNGNGGPGPYVGQAGTATLPRNFHYPPDGYSRHYEDGYPGGSDNYGSLSRVTRIEERYRPSMEGYRAPSRQDVYGPQPQVRVGGSSVDLHRFHPEPYGLEDDQRSMGYDDLDYGMMSDYGTARRTGTPSDPRRRLRSYEDMIGEEVPSDQYYWAPLAQHERGSLASLDSLRKGGPPPPNWRQPELPEVIAMLGFRLDAVKSNAAAYLQHLCYRNDKVKTDVRKLKGIPVLVGLLDHPKKEVHLGACGALKNISFGRDQDNKIAIKNCDGVPALVRLLRKARDMDLTEVITGTLWNLSSHDSIKMEIVDHALHALTDEVIIPHSGWEREPNEDCKPRHIEWESVLTNTAGCLRNVSSERSEARRKLRECDGLVDALIFIVQAEIGQKDSDSKLVENCVCLLRNLSYQVHREIPQAERYQEAAPNVANNTGPHAASCFGAKKGKDEWFSRGKKPIEDPANDTVDFPKRTSPARGYELLFQPEVVRIYISLLKESKTPAILEASAGAIQNLCAGRWTYGRYIRSALRQEKALSAIADLLTNEHERVVKAASGALRNLAVDARNKELIGKHAIPNLVKNLPGGQQNSSWNFSEDTVISILNTINEVIAENLEAAKKLRETQGIEKLVLINKSGNRSEKEVRAAALVLQTIWGYKELRKPLEKEGWKKSDFQVNLNNASRSQSSHSYDDSTLPLIDRNQKSDKKPDREEIQMSNMGSNTKSLDNNYSTPNERGDHNRTLDRSGDLGDMEPLKGTTPLMQDEGQESLEEELDVLVLDDEGGQVSYPSMQKI |
